Assay results reported in PMC4843787 (Biochimica et biophysica acta, 2015).
Where a chain is given by its changes, count along the chain named. Numbers in names are those of the source. Blank lines part the entries; values can stand above or below the binder they belong to.

Molecular target: T1, MauG, bis-Fe(IV) redox state (UniProt Q51658 21-387)
T1 sequence (looked up): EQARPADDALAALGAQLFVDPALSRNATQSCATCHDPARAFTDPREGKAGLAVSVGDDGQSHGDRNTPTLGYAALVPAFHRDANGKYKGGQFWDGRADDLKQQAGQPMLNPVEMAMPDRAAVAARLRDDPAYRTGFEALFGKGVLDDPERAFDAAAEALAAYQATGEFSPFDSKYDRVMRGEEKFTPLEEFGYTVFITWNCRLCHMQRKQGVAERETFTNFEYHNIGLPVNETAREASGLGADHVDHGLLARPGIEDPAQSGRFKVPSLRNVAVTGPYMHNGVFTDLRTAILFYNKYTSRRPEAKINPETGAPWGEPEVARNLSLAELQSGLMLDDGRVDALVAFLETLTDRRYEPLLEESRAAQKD
Assay: stopped-flow single-turnover kinetics

Kd: 165 ± 50 µM
B1: amicyanin from Paracoccus denitrificans, wild type, reduced Cu(I) form (natural protein, UniProt P22364 27-131, looked up)
chain: DKATIPSESPFAAAEVADGAIVVDIAKMKYETPELHVKVGDTVTWINREAMPHNVHFVAGVLGEAALKGPMMKKEQAYSLTFTEAGTYDYHCTPHPFMRGKVVVE

Kd: 240 ± 82 µM
B2: P94A amicyanin, reduced Cu(I) form (natural protein, Paracoccus denitrificans, UniProt P22364 27-131, looked up)
chain: B1 chain with P94A
